Data from article doi:10.1101/2024.05.14.593897.

Target: T1, KBTBD4 (construct for structure determination) (human), Q9NVX7
T1 chain: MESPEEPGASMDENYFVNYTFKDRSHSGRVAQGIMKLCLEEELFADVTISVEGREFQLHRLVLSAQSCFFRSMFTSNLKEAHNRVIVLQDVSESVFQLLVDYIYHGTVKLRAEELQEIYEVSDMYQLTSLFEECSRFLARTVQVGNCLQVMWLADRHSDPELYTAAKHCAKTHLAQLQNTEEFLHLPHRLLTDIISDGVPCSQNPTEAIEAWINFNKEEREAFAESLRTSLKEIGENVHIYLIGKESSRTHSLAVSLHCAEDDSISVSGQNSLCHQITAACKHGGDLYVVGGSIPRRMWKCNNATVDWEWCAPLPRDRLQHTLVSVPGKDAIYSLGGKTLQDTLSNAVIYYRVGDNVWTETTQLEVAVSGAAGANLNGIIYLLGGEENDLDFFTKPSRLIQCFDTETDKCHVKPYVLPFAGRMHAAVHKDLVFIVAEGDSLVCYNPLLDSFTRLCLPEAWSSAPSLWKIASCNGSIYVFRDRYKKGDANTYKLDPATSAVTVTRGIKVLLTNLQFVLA
Assay: cryo-EM structure
Conditions: remark: other sources report otherwise

stoichiometry N: 2
B1: KBTBD4 (construct for structure determination), Q9NVX7-1 1-518 (natural protein)
chain: T1 chain
